Measured values taken from PMC9576935, “MiR-585-5p impedes gastric cancer proliferation and metastasis by orchestrating the interactions among CREB1, MAPK1 and MITF”.

Molecular target: CREB1 (recombinant, Ni-affinity purified) (UniProt P16220 1-327)
Test: EMSA; LightShift EMSA kit: 2 ul 5x binding buffer, 6 ul CREB1, 1 ul probe, 25 C, 20 min; salt and pH not stated
Conditions: protein: recombinant; (Ni-chelating purification); chain copies: 2; label: 5' 6-FAM (FITC) on forward strand (Methods); blunt

Sequence of CREB1 (recombinant, Ni-affinity purified) (P16220 whole entry): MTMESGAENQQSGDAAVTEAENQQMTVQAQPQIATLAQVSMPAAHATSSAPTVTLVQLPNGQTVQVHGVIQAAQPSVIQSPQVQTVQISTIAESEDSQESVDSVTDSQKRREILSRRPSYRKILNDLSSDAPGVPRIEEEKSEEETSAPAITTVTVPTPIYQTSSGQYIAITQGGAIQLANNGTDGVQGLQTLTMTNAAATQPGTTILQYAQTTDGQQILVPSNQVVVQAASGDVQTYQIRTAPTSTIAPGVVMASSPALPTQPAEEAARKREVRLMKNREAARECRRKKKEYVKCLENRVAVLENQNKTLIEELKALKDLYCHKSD

B1: MITF-wt probe (dsDNA)
DNA 1: TGGATGTCTTTTCTGATGTGAAATTAAA
DNA 2: TTTAATTTCACATCAGAAAAGACATCCA
B1: binds.
